# From the supplement of paper PMC7877785
# ± gives the uncertainty stated by the source.
# Test: self-splicing fitness, log relative to wild type (ln ratio); higher = more splicing; Tetrahymena group I intron in knt gene, E. coli kanamycin selection, DiMSum; sequences stand for … in CUCUCU…GGAGGGAAAAGUUAUCAGGCAUGCACCUGGUAGCUAGUCUUUAAACCAAUAGAUUGCAUCGGUUUAAAAGGCAAGACCGUCAAAUUGCGGGAAAGGGGUCAACAGCCGUUCAGUACCAAGUCUCAGGGGAAACUUUGAGAUGGCCUUGCAAAGGGUAUGGUAAUAAGCUGACGGACAUGGUCCUAACCACGCAGCCAAGUCCUAAGUCAACAGAUCUUCUGUUGAUAUGGAUGCAGUUCACAGACUAAAUGUCGGUCGGGGAAGAUGUAUUCUUCUCAUAAGAUAUAGUCGGACCUCUCCUUAAUGGGAGCUAGCGGAUGAAGUGAUGCAACACUGGAGCCGCUGGGAACUAAUUUGUAUGCGAAAGUAUAUUGAUUAGUUUUGGAGUACUCGUGGUCG
# In short: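 Pooled colonies went to amplicon sequencing on an Illumina HiSeq 2500 after six replicate transformations. The plates were LB agar with 100 μg/mL carbenicillin, 50 μM IPTG and 0.2% rhamnose, with or without 25 μg/mL kanamycin, incubated overnight at 37°C or 30°C. The E. coli BL21(DE3) library had all eight P1ex-region intron nucleotides randomised, the intron placed in the knt kanamycin-resistance gene on pET-22b(+). DiMSum fitness is the error-weighted combination of replicate fold changes, kanamycin against none, normalised to wild type.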
Sequence,self-splicing fitness (ln) (30 °C),self-splicing fitness (ln) (37 °C)
CUAGAGCAAUAUUACGGCAG,0.0667 ± 0.08,0.49 ± 0.11
CUAGAGCAAUAUUACGGGGA,-2.35 ± 0.22,-3.06 ± 0.47
CUAGAGCAAUAUUACGGGGG,-2.64 ± 0.24,-1.11 ± 0.27
CUAGAGCAAUAUUACGGUAC,-3.01 ± 0.33,
CUAGAGCAAUAUUACGUAAC,-4.96 ± 0.38,-2.32 ± 0.19
CUAGAGCAAUAUUACGUGUA,-4.57 ± 0.46,-2.41 ± 0.23
CUAGAGCAAUAUUACGUGUU,-3.3 ± 0.26,-2.8 ± 0.3
CUAUAGCAAUAUUACGAAAA,,-2.17 ± 0.29
CUAUAGCAAUAUUACGAACG,0.0017 ± 0.29,-0.388 ± 0.33
CUAUAGCAAUAUUACGAAGG,-1.76 ± 0.13,-1.72 ± 0.19
CUAUAGCAAUAUUACGACCA,-3.1 ± 0.29,-2.44 ± 0.35
CUAUAGCAAUAUUACGAGGG,-3.08 ± 0.21,-2.41 ± 0.27
CUAUAGCAAUAUUACGAUAU,-2.53 ± 0.21,-2.45 ± 0.45
CUAUAGCAAUAUUACGCAGA,-2.65 ± 0.16,-1.2 ± 0.14
CUAUAGCAAUAUUACGCGCA,-2.97 ± 0.46,-1.65 ± 0.47
CUAUAGCAAUAUUACGCGGC,-1.25 ± 0.26,0.45 ± 0.25
CUAUAGCAAUAUUACGCGGG,-3.11 ± 0.28,-2.88 ± 0.31
CUAUAGCAAUAUUACGCUAA,-1.65 ± 0.2,-2.41 ± 0.32
CUAUAGCAAUAUUACGCUCU,-3.4 ± 0.29,-2.3 ± 0.34
CUAUAGCAAUAUUACGCUGU,-3.72 ± 0.26,-1.29 ± 0.22
CUAUAGCAAUAUUACGGAGU,-4.03 ± 0.28,-2.86 ± 0.26
CUAUAGCAAUAUUACGGCAC,-2.18 ± 0.24,-1.09 ± 0.42
CUAUAGCAAUAUUACGGCCA,,-3.35 ± 0.43
CUAUAGCAAUAUUACGGCUA,-2.95 ± 0.28,-3.42 ± 0.47
CUAUAGCAAUAUUACGGGAC,-2.51 ± 0.3,

Sequence,self-splicing fitness (ln) (30 °C),self-splicing fitness (ln) (37 °C)
CUAUAGCAAUAUUACGGGAG,-2.58 ± 0.27,-1.87 ± 0.28
CUAUAGCAAUAUUACGGUAA,-3.01 ± 0.23,-1.69 ± 0.18
CUAUAGCAAUAUUACGGUAU,-4.43 ± 0.36,-3.22 ± 0.27
CUAUAGCAAUAUUACGGUUG,-0.804 ± 0.088,0.0411 ± 0.1
CUAUAGCAAUAUUACGGUUU,-3.72 ± 0.12,-2.58 ± 0.17
CUAUAGCAAUAUUACGUGGA,-2.83 ± 0.19,-2.4 ± 0.27
CUAUAGCAAUAUUACGUUAC,-3.45 ± 0.25,-2.14 ± 0.33
CUAUAGCAAUAUUACGUUGG,-3.71 ± 0.16,-2.79 ± 0.17
CUCAAGCAAUAUUACGAAGU,-3.75 ± 0.2,-2.36 ± 0.21
CUCAAGCAAUAUUACGACGU,-2.18 ± 0.098,-1.54 ± 0.11
CUCAAGCAAUAUUACGAGAC,-3.27 ± 0.21,-2.35 ± 0.23
CUCAAGCAAUAUUACGAGCG,-3 ± 0.15,-1.31 ± 0.12
CUCAAGCAAUAUUACGAGGG,,-2.8 ± 0.43
CUCAAGCAAUAUUACGAUAC,-1.63 ± 0.18,
CUCAAGCAAUAUUACGAUUA,-3.59 ± 0.47,-2.37 ± 0.23
CUCAAGCAAUAUUACGCACU,-3.2 ± 0.24,-2.08 ± 0.28
CUCAAGCAAUAUUACGCUAC,-4.12 ± 0.29,-2.23 ± 0.24
CUCAAGCAAUAUUACGCUUU,-4.09 ± 0.37,-3.52 ± 0.31
CUCAAGCAAUAUUACGGAAA,-3.21 ± 0.28,-2.6 ± 0.25
CUCAAGCAAUAUUACGGCAU,-2.66 ± 0.18,-1.58 ± 0.24
CUCAAGCAAUAUUACGGGUG,-1.43 ± 0.059,-1.2 ± 0.073
CUCAAGCAAUAUUACGGUGA,-2.9 ± 0.12,-1.29 ± 0.12
CUCAAGCAAUAUUACGGUUC,-3.65 ± 0.17,-2.74 ± 0.16
CUCAAGCAAUAUUACGUGGU,-3.18 ± 0.12,-2.09 ± 0.12
